Assay [1] addresses pIgR Domain 6 GST (D6-GST) fusion protein, species not named. As to the kind of experiment: SPR (Biacore), 1:1 Langmuir model; ligand not given. In general terms: In SPR one partner is held on a chip, and binding of the other changes the refractive index at the surface.
The target in assay [2] is pIgR expressed on transfected MDCK cells. In words: cell-based or functional assay.
The target in assay [3] is T1, GST-Rat-stalk fusion protein (Schistosoma japonica; rat, UniProt P15083 535-643).
T1 construct: domain: stalk; About 39.3 kD, no 6xHis tag; also called [GST]-[rat domain 6] fusion protein; D6 rat; not shown: glutathione-S-transferase from Schistosoma japonica, from vector pGEX-2TK
T1 sequence (looked up): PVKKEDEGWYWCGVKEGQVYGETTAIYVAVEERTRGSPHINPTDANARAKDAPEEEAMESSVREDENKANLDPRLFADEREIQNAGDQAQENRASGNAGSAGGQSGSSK
As to the kind of experiment: SPR (Biacore), D6-GST captured on anti-GST antibody, global fit.

For assay [4], the target named is T2, GST-Human-stalk fusion protein (Schistosoma japonica; human, UniProt P01833 550-638).
T2 construct: domain: stalk; About 37.8 kD; also called D6 human; human pIgR Domain 6 GST (D6-GST) fusion protein; not shown: glutathione-S-transferase from Schistosoma japonica, from vector pGEX-2TK
Described as above.

Assay [5] addresses T3, GST-Cyn monkey-stalk fusion protein (Schistosoma japonica; cynomolgus monkey).
T3 construct: also called D6 cyno; Cyno; not shown: GST (Schistosoma japonicum, from pGEX-2TK) and its linker before the GS
T3 chain: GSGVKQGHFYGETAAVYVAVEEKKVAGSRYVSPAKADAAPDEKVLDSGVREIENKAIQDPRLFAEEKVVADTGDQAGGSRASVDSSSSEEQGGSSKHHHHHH
Described as above.

Assay [6] concerns the target T1, GST-Rat-stalk fusion protein. In words: SPR (Biacore), D6-GST captured on anti-GST antibody, 1:1 Langmuir global fit.
Assay [7] deals with T2, GST-Human-stalk fusion protein. The assay is described as above.
Assay [8] has as its target T3, GST-Cyn monkey-stalk fusion protein. The assay is described as above.
The target in assay [9] is T1, GST-Rat-stalk fusion protein. In words: SPR (Biacore), D6-GST captured on anti-GST antibody.
Assay [10] concerns the target T2, GST-Human-stalk fusion protein. The assay is described as above.
The target in assay [11] is T3, GST-Cyn monkey-stalk fusion protein. The description is as above.

T2 sequence (P01833 550-638, tags left off): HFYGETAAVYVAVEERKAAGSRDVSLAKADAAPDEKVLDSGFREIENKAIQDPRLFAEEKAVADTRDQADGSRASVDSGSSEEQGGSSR

B1: single chain antibody sFv5AF (scFv)
scFv: DYKAKQVQLVQSGGGVVQPGRSLRLSCAASGFTFSSYAMHWVRQAPGKGLEWVSAISGSGGSTYYADSVKGRFTISRDNAKNSLYLQMNSLRAEDTAVYYCARDTRGYFDLWGRGTLVTVSSGGGGSGGGGSGGGGSSELTQDPAMSVALGQTVRITCQGDSLRKYHASWYQQRPRQAPRLVVYGKNERPSGIPERFSGSTSGDTASLTISGLQAEDEADYYCHSRDSNADLVVFGGGTKVTVLGAAAEQKLISEEDLNGAAHHHHHH
Regarding B1, in [1], the Ka came to 4.47e+06 M⁻¹, the Kd is 224 nM, the koff was found to be 0.00464 s⁻¹ and the kon stood at 27100 M⁻¹ s⁻¹. Moreover, the percent transcytosis, pIgR expressing MDCK cells, overnight in [2] was determined as 2%.

B2: [monomer sFv5AF-Cys]-SPDP-[15 kD protein] conjugate without c-myc tag (Az018b) (other)
scFv: DYKAKQVQLVQSGGGVVQPGRSLRLSCAASGFTFSSYAMHWVRQAPGKGLEWVSAISGSGGSTYYADSVKGRFTISRDNAKNSLYLQMNSLRAEDTAVYYCARDTRGYFDLWGRGTLVTVSSGGGGSGGGGSGGGGSSELTQDPAMSVALGQTVRITCQGDSLRKYHASWYQQRPRQAPRLVVYGKNERPSGIPERFSGSTSGDTASLTISGLQAEDEADYYCHSRDSNADLVVFGGGTKVTVLGGGGGSC
notes: also called Az0018b; not shown: the 15 kD protein (never identified); the exact point where the c-myc/His tail was lost
As for B2, in assay [3], the Ka is 1.28e+07 M⁻¹, the Kd was found to be 77.9 nM, the koff amounted to 0.00385 s⁻¹ and the kon is 49400 M⁻¹ s⁻¹. Moreover, in assay [4], the Ka turned out to be 9.3e+06 M⁻¹; the affinity, expressed as Kd, was 107 nM; the koff was determined as 0.00465 s⁻¹; the kon amounted to 43200 M⁻¹ s⁻¹. For the same molecule, in assay [5], the Ka is 9.5e+06 M⁻¹, the Kd was found to be 105 nM, the koff stood at 0.00557 s⁻¹ and the kon was found to be 52900 M⁻¹ s⁻¹.

B3: single chain antibody sFv5A (scFv)
scFv: QVQLQQSGGGVVQPGRSLRLSCAASGFTFSSYAMHWVRQAPGKGLEWVSAISGSGGSTYYADSVKGRFTISRDNAKNSLYLQMNSLRAEDTAVYYCARDTRGYFDLWGRGTLVTVSSGGGGSGGGGSGGGGSSELTQDPAMSVALGQTVRITCQGDSLRKYHASWYQQRPRQAPRLVVYGKNERPSGIPERFSGSTSGDTASLTISGLQAEDEADYYCHSRDSNADLVVFGGGTKVTVLGAAAEQKLISEEDLNGAAHHHHHH
As for B3, the Ka in assay [1] was found to be 6.31e+06 M⁻¹; in assay [3], 2.95e+07 M⁻¹; in assay [4], 2.16e+07 M⁻¹; in assay [5], 1.93e+07 M⁻¹. Moreover, the equilibrium dissociation constant (Kd) came out at 158 nM in [1], 33.9 nM in [3], 46.3 nM in [4] and 51.8 nM in [5]. In addition, the koff turned out to be 0.00464 s⁻¹ in assay [1], 0.00262 s⁻¹ in assay [3], 0.00337 s⁻¹ in [4] and 0.00397 s⁻¹ in assay [5]. The kon amounted to 29300 M⁻¹ s⁻¹ in assay [1], 77300 M⁻¹ s⁻¹ in [3], 72900 M⁻¹ s⁻¹ in assay [4] and 76700 M⁻¹ s⁻¹ in assay [5].

B4: sFv5AF-Cys (starting material, mixture of monomer and dimer) (scFv)
scFv: DYKAKQVQLVQSGGGVVQPGRSLRLSCAASGFTFSSYAMHWVRQAPGKGLEWVSAISGSGGSTYYADSVKGRFTISRDNAKNSLYLQMNSLRAEDTAVYYCARDTRGYFDLWGRGTLVTVSSGGGGSGGGGSGGGGSSELTQDPAMSVALGQTVRITCQGDSLRKYHASWYQQRPRQAPRLVVYGKNERPSGIPERFSGSTSGDTASLTISGLQAEDEADYYCHSRDSNADLVVFGGGTKVTVLGGGGGSCAAAEQKLISEEDLNGAAHHHHHH
notes: also called s5AF-Cys
B4: the Ka in assay [6] is 4.36e+08 M⁻¹; in assay [7] it was 6.71e+08 M⁻¹; in assay [8] it was 7.7e+08 M⁻¹; in assay [1], 9.84e+06 M⁻¹. The dissociation constant (Kd) in assay [6] was 2.3 nM; in assay [7], 1.49 nM; in assay [8] it was 1.3 nM; in [1], 102 nM. Further, the koff came to 0.00282 s⁻¹ in assay [6], 0.00145 s⁻¹ in [7], 0.00137 s⁻¹ in [8] and 0.00464 s⁻¹ in [1]. Also, the kon amounted to 1.23e+06 M⁻¹ s⁻¹ in assay [6], 976000 M⁻¹ s⁻¹ in [7], 1.06e+06 M⁻¹ s⁻¹ in assay [8] and 37600 M⁻¹ s⁻¹ in [1].

B5: [monomer sFv5AF-Cys]-SPDP-[15 kD protein] conjugate with c-myc tag (Az018a) (other)
scFv: B4 scFv
With B5, in assay [3], the Ka amounted to 1.24e+07 M⁻¹, the Kd came out at 80.6 nM, the koff is 0.0038 s⁻¹ and the kon stood at 47100 M⁻¹ s⁻¹. Further, in [4], the Ka was determined as 9.62e+06 M⁻¹, the Kd worked out at 104 nM, the koff came to 0.00449 s⁻¹ and the kon turned out to be 43200 M⁻¹ s⁻¹. In [5], this molecule displayed a Ka of 9.69e+06 M⁻¹, a Kd of 103 nM, a koff of 0.00535 s⁻¹ and a kon of 51800 M⁻¹ s⁻¹.

B6: [dimer sFv5AF-Cys]-SPDP-[15 kD protein] conjugate (Az019) (other)
scFv 1: B4 scFv
scFv 2: B4 scFv
notes: also called AzO19; Az0019
In [3], B6 returned a Ka of 1.06e+08 M⁻¹, a Kd of 9.39 nM, a koff of 0.00196 s⁻¹ and a kon of 209000 M⁻¹ s⁻¹. In [4], this molecule returned a Ka of 1.39e+08 M⁻¹, a Kd of 7.18 nM, a koff of 0.00109 s⁻¹ and a kon of 152000 M⁻¹ s⁻¹. Further, in assay [5], the Ka came to 1.52e+08 M⁻¹, the Kd was 6.57 nM, the koff was found to be 0.00108 s⁻¹ and the kon was found to be 164000 M⁻¹ s⁻¹.

B7: purified monomer sFv5AF-Cys (scFv)
scFv: B4 scFv
notes: also called 5Afcys Monomer; sFv5AF-Cys monomer
As for B7, in [6], the Ka came out at 1.77e+08 M⁻¹; the affinity, expressed as Kd, was 5.63 nM; the koff is 0.00303 s⁻¹; the kon is 538000 M⁻¹ s⁻¹. In assay [7], this molecule registered a Ka of 1.77e+08 M⁻¹, a Kd of 5.64 nM, a koff of 0.00241 s⁻¹ and a kon of 428000 M⁻¹ s⁻¹. In assay [8], the Ka turned out to be 1.73e+08 M⁻¹, binding was characterised by a dissociation constant (Kd) of 5.77 nM, the koff was determined as 0.00256 s⁻¹ and the association rate constant (kon) turned out to be 443000 M⁻¹ s⁻¹.

B8: purified dimer sFv5AF-Cys (scFv)
scFv: B4 scFv
notes: also called 5Afcys Dimer; sFv5AF-Cys dimer
B8: the Ka worked out at 5.01e+08 M⁻¹ in assay [6], 5.02e+08 M⁻¹ in [7] and 4.61e+08 M⁻¹ in assay [8]. Also, the Kd in assay [6] came to 2 nM; in assay [7], 1.99 nM; in assay [8], 2.17 nM. Further, the koff in assay [6] was found to be 0.00341 s⁻¹; in assay [7], 0.00217 s⁻¹; in [8], 0.00244 s⁻¹. The kon was 1.71e+06 M⁻¹ s⁻¹ in assay [6], 1.09e+06 M⁻¹ s⁻¹ in assay [7] and 1.12e+06 M⁻¹ s⁻¹ in [8]. The “fold difference in affinity against the purified monomer” value in assay [9], in assay [10] and in assay [11] was about 3 fold in each case.

A word on the Kd: it is the free concentration of one partner at which half of the binding sites on the other are occupied at equilibrium, for simple one-to-one binding. One may read the koff as the first-order rate constant of dissociation. High values mean a short-lived complex, low ones a long-lived complex. As usually defined, the kon is a measure of how fast the partners come together. The low end stands for slow association, the high end for fast association.

The values above are taken from patent publication US20030161809A1 (published 2003).
